In PMC11758377 (2026):

Molecular target: H3K4me3 peptide (Homo sapiens, UniProt P68431)
Test: MST

B1: BPTF-PHD PHD (protein)
chain: KLYCICKTPYDESKFYIGCDRCQNWYHGRCVGILQSEAELIDEYVCPQCQST
Kd: 2900 nM
